According to the Human Domainome abundance scans (Beltran et al. 2025):
± gives the uncertainty stated by the source.

B1: POU domain, class 4, transcription factor 1, residues 266 to 347; numbered along this chain, Q01851 (parent)
chain: RELEAFAERFKQRRIKLGVTQADVGSALANLKIPGVGSLSQSTICRFESLTLSHNNMIALKPILQAWLEEAEGAQREKMNKP

Variants of: B1
Experiment: abundance fitness (aPCA) (normalised: wild type 0, dead -1); higher = more abundant; growth selection in yeast, the domain comes from the species named
Conditions: Homo sapiens

Abundance fitness, by site and new letter:
I33: T -0.145 ± 0.039; V 0.05 ± 0.027; W -0.114 ± 0.03; Y -0.21 ± 0.053
P34: A 0 ± 0.029; E 0.027 ± 0.033; F -0.097 ± 0.065; G -0.088 ± 0.024; H -0.167 ± 0.063; I -0.197 ± 0.066; K -0.065 ± 0.043; L -0.186 ± 0.036; M -0.163 ± 0.041; N -0.133 ± 0.063; Q -0.027 ± 0.039; T -0.011 ± 0.039; W -0.322 ± 0.041; Y -0.387 ± 0.082
G35: A -0.397 ± 0.26; D -0.142 ± 0.24; F 0.122 ± 0.37; I 0.268 ± 0.49; L -0.303 ± 0.19; M -0.175 ± 0.22; R -0.056 ± 0.12; S -0.29 ± 0.23; T 0.07 ± 0.19; W -0.326 ± 0.28
V36: C -0.225 ± 0.18; D -0.463 ± 0.42; E -0.125 ± 0.086; G -0.142 ± 0.11; I 0.013 ± 0.13; K -0.138 ± 0.14; L 0.003 ± 0.12; M -0.189 ± 0.22; N -0.327 ± 0.19; Q -0.252 ± 0.17; R -0.214 ± 0.062; S -0.096 ± 0.24; T 0.24 ± 0.15; Y -0.257 ± 0.38
G37: A -0.045 ± 0.028; C -0.058 ± 0.047; D -0.092 ± 0.052; E 0.015 ± 0.032; F -0.149 ± 0.045; H -0.05 ± 0.066; I -0.116 ± 0.063; K -0.074 ± 0.041; L -0.121 ± 0.03; M -0.134 ± 0.037; N 0.035 ± 0.079; P -0.016 ± 0.04; Q -0.121 ± 0.042; R -0.115 ± 0.025; S -0.047 ± 0.032; T -0.076 ± 0.039; V -0.093 ± 0.028; W -0.328 ± 0.036; Y -0.054 ± 0.053
S38: A -0.18 ± 0.27; C -0.222 ± 0.16; E 0.016 ± 0.083; F 0.147 ± 0.18; G -0.203 ± 0.13; H 0.047 ± 0.38; L -0.11 ± 0.11; P -0.112 ± 0.14; R 0.048 ± 0.096; V 0.05 ± 0.2; W -0.095 ± 0.14
L39: C -0.096 ± 0.071; D -0.231 ± 0.09; F -0.211 ± 0.16; H -0.113 ± 0.26; I 0.042 ± 0.13; K -0.409 ± 0.08; M 0.01 ± 0.059; P -0.03 ± 0.072; Q -0.368 ± 0.085; R -0.487 ± 0.044; S -0.33 ± 0.064; T -0.138 ± 0.085; V 0.001 ± 0.037; W -0.169 ± 0.046; Y -0.277 ± 0.11
S40: A -0.129 ± 0.053; C -0.017 ± 0.057; D 0.042 ± 0.099; E -0.063 ± 0.051; F -0.263 ± 0.11; G -0.058 ± 0.035; H -0.159 ± 0.16; I -0.202 ± 0.17; K -0.079 ± 0.06; L -0.238 ± 0.052; M -0.359 ± 0.096; N -0.05 ± 0.1; P -0.15 ± 0.066; Q -0.072 ± 0.075; R -0.155 ± 0.041; V -0.331 ± 0.055; W -0.369 ± 0.076; Y -0.307 ± 0.24
Q41: A 0.053 ± 0.044; D 0.048 ± 0.084; E 0.051 ± 0.039; F 0.084 ± 0.095; G 0.003 ± 0.034; H 0.149 ± 0.11; I 0.074 ± 0.14; K 0 ± 0.066; M -0.074 ± 0.064; N -0.137 ± 0.13; P 0.104 ± 0.091; T -0.055 ± 0.062; V -0.054 ± 0.04; W -0.074 ± 0.051; Y -0.194 ± 0.12
S42: A 0.012 ± 0.05; C -0.071 ± 0.055; E 0.004 ± 0.045; F -0.199 ± 0.098; H -0.152 ± 0.13; I -0.034 ± 0.093; K 0.093 ± 0.065; L -0.107 ± 0.045; M -0.042 ± 0.073; N 0.022 ± 0.082; P -0.198 ± 0.083; Q -0.113 ± 0.065; R -0.006 ± 0.037; T 0.029 ± 0.082; W -0.18 ± 0.051; Y -0.185 ± 0.22
T43: A -0.044 ± 0.051; C -0.101 ± 0.072; D -0.079 ± 0.075; E -0.187 ± 0.072; F -0.587 ± 0.3; H 0.063 ± 0.12; K -0.286 ± 0.15; L 0.053 ± 0.056; M 0.037 ± 0.076; N -0.199 ± 0.26; P -0.606 ± 0.14; Q -0.113 ± 0.11; R -0.483 ± 0.06; S -0.109 ± 0.061; V -0.031 ± 0.045; W -0.131 ± 0.068; Y -0.238 ± 0.21
I44: A -1.18 ± 0.21; D -0.957 ± 0.48; E -0.814 ± 0.12; F -0.726 ± 0.2; G -1 ± 0.093; K -1.04 ± 0.24; L -0.153 ± 0.058; M -0.437 ± 0.086; N -0.516 ± 0.23; P -0.864 ± 0.22; Q -0.989 ± 0.34; R -0.999 ± 0.12; S -0.68 ± 0.12; T -0.751 ± 0.15; V 0.029 ± 0.044; W -0.827 ± 0.12; Y -1.01 ± 0.42
C45: A 0.057 ± 0.043; D -0.139 ± 0.09; E 0.06 ± 0.046; F -0.108 ± 0.097; G -0.037 ± 0.031; H 0.089 ± 0.12; I -0.001 ± 0.09; K 0.035 ± 0.058; L -0.073 ± 0.05; M 0.03 ± 0.08; N -0.084 ± 0.17; P -0.18 ± 0.075; R 0.056 ± 0.04; S 0.079 ± 0.047; T 0.11 ± 0.068; W -0.076 ± 0.048; Y -0.037 ± 0.1
R46: A 0.094 ± 0.047; C -0.117 ± 0.1; D 0.014 ± 0.11; E 0.055 ± 0.061; G -0.038 ± 0.038; H -0.203 ± 0.17; I -0.971 ± 0.33; K 0.005 ± 0.089; L -0.176 ± 0.05; M 0.128 ± 0.084; N 0.047 ± 0.2; P -0.576 ± 0.18; Q 0.042 ± 0.07; S -0.009 ± 0.059; V -0.503 ± 0.071; W -0.391 ± 0.067; Y -0.307 ± 0.17
F47: A -1.03 ± 0.18; C -0.969 ± 0.28; E -0.819 ± 0.15; I -0.917 ± 0.28; L -0.145 ± 0.063; P -0.717 ± 0.19; Q -1 ± 0.34; R -0.934 ± 0.12; S -0.717 ± 0.14; T -0.822 ± 0.3; V -0.706 ± 0.095; Y -0.272 ± 0.12
E48: A -1.1 ± 0.094; C -1.27 ± 0.18; D -1 ± 0.09; H -1.12 ± 0.12; I -1.28 ± 0.17; K -0.823 ± 0.091; M -1.23 ± 0.19; N -0.973 ± 0.11; P -0.856 ± 0.076; S -0.979 ± 0.063; T -0.954 ± 0.08; V -1.04 ± 0.072; W -0.811 ± 0.078; Y -1.05 ± 0.12
S49: A -0.004 ± 0.031; C -0.082 ± 0.037; E 0.045 ± 0.039; F -0.632 ± 0.065; G -0.002 ± 0.029; H -0.062 ± 0.039; I -0.573 ± 0.063; L -0.181 ± 0.03; M -0.101 ± 0.037; N 0.061 ± 0.045; Q 0.052 ± 0.043; R -0.073 ± 0.029; T 0.001 ± 0.035; V -0.654 ± 0.046; W -0.541 ± 0.053; Y -0.396 ± 0.044
L50: A 0.031 ± 0.032; C 0.095 ± 0.046; D -0.425 ± 0.053; E -0.26 ± 0.057; F 0.052 ± 0.042; G 0.049 ± 0.038; H 0.044 ± 0.045; I -0.13 ± 0.043; K 0.029 ± 0.049; M 0.055 ± 0.045; N -0.032 ± 0.04; Q -0.01 ± 0.056; R 0.012 ± 0.036; S 0.018 ± 0.033; T -0.062 ± 0.039; V -0.006 ± 0.033; W -0.233 ± 0.052; Y 0.008 ± 0.04
T51: A -0.015 ± 0.034; C -0.106 ± 0.048; D 0.034 ± 0.046; E 0.032 ± 0.07; F -0.406 ± 0.053; G -0.021 ± 0.039; H 0.003 ± 0.036; I -0.205 ± 0.041; K 0.015 ± 0.044; L -0.022 ± 0.031; M -0.004 ± 0.044; N -0.042 ± 0.04; P -0.877 ± 0.085; Q 0.054 ± 0.038; R -0.017 ± 0.035; S 0.018 ± 0.031; V -0.105 ± 0.038; W -0.487 ± 0.065; Y -0.368 ± 0.05
L52: C -0.351 ± 0.079; D -0.229 ± 0.084; E -0.132 ± 0.052; F -0.24 ± 0.47; H -0.234 ± 0.2; I -0.496 ± 0.29; K -1.28 ± 0.27; R -0.986 ± 0.084; S -0.557 ± 0.067; T -0.472 ± 0.064; V -0.588 ± 0.07; W -0.546 ± 0.071; Y -0.701 ± 0.26
S53: A -0.039 ± 0.043; C 0.004 ± 0.089; D -0.136 ± 0.075; F -0.903 ± 0.23; G -0.039 ± 0.038; I -0.173 ± 0.31; K -0.269 ± 0.073; L -0.518 ± 0.094; M -0.419 ± 0.076; N -0.114 ± 0.1; P 0.02 ± 0.055; Q -0.013 ± 0.07; R -0.139 ± 0.04; T -0.174 ± 0.064; V -0.389 ± 0.055; W -0.533 ± 0.094; Y -0.131 ± 0.19
H54: A 0.01 ± 0.038; C -0.089 ± 0.059; D -0.039 ± 0.061; E 0.058 ± 0.047; F -0.02 ± 0.1; I 0.091 ± 0.1; K 0.007 ± 0.066; L 0.046 ± 0.04; M 0.044 ± 0.052; N -0.075 ± 0.084; P 0.041 ± 0.045; Q -0.02 ± 0.055; R 0.053 ± 0.029; S 0.057 ± 0.043; T 0.08 ± 0.052; W -0.014 ± 0.04; Y 0.057 ± 0.088
N55: A 0.023 ± 0.041; C -0.036 ± 0.13; D -0.094 ± 0.1; F -0.18 ± 0.12
